Patent publication US20160264674A1 (ADURO BIOTECH HOLDINGS EUROPE B V, published 2016)
Residue numbers refer to the chain shown, from its start. Names may count otherwise. Values belong to the binder of their own block, whether it stands above or below them.

What was measured:
FLAG-tagged human APRIL [1] = target: T1, FLAG-tagged human APRIL (human, UniProt O75888 105-250, limits assumed); test: FLAG-APRIL ELISA after 10 min at 65 °C, antibody at 1 µg/ml
T1 construct: also called FLAG-tagged APRIL; FLAG-APRIL; not shown: FLAG tag
T1 sequence (looked up): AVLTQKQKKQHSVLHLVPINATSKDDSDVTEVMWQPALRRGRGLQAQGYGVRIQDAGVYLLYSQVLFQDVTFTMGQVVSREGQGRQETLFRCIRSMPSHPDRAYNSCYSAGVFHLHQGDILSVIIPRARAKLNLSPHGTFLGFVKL
Description: (§1) The plasmids encoding the VH and VL constructs were mixed in a 1:3 ratio (4 μg in total) and transiently expressed by transfection into HEK293T human embryonic kidney cells (HEK293T/17, ATCC-CRL-11268), using Lipofectamine 2000 transfection reagent (Invitrogen) following the manufacturer's instructions. Cell supernatants were harvested after 5 days and tested for expression of antibody and binding to APRIL using an enzyme-linked immuno assay (ELISA). In these ELISAs, all incubation steps were followed by a wash step with PBST (PBS with 0.01% Tween 20). Maxisorb 96-wells plates (Nunc) were coated with 0.5 μg/ml anti-FLAG (Sigma) or anti-IgG4 (Jackson laboratories) and incubated overnight at 4° C. Subsequently the anti-FLAG coated 96-wells plates were incubated with FLAG-tagged human APRIL for 1 hour at room temperature. Next, supernatants and dilutions thereof were incubated for 1 hour, which was followed by an incubation of 1 hour with mouse anti-human IgG HRP-conjugate (Southern Biotechnology).
(§2) To determine the effect of humanization on the stability of the antibodies, humanized antibodies were exposed to a range of temperatures for 10 minutes. Purified antibodies were diluted to 3.16 μg/ml and dilutions thereof in PBS. Next, these solutions were exposed to 65° C. or 70° C. and residual binding after heat treatment of the antibodies was measured using the FLAG-tagged APRIL ELISA assay as described before (see Table 6).

FLAG-tagged human APRIL [2] = target: T1, FLAG-tagged human APRIL; test: FLAG-APRIL ELISA after 10 min at 70 °C, antibody at 1 µg/ml
Description: as §1, §2

FLAG-tagged human APRIL [3] = target: T1, FLAG-tagged human APRIL; test: FLAG-APRIL ELISA after 10 min at 65 °C, antibody at 1 µg/ml; remark: listed apart in the source
Description: as §1, §2
(§3) In addition, the stability of the substituted humanized antibodies was improved as determined using thermostability studies as described in Example 3 (see Table 9).

FLAG-tagged human APRIL [4] = target: T1, FLAG-tagged human APRIL; test: FLAG-APRIL ELISA after 10 min at 70 °C, antibody at 1 µg/ml; remark: listed apart in the source
FLAG-tagged human APRIL [5] = target: T1, FLAG-tagged human APRIL; test: FLAG-APRIL ELISA after 10 min at 65 °C, antibody at 3.16 µg/ml
Description: as §1, §2

FLAG-tagged human APRIL [6] = target: T1, FLAG-tagged human APRIL; test: FLAG-APRIL ELISA after 10 min at 70 °C, antibody at 3.16 µg/ml
Description: as §1, §2

FLAG-tagged human APRIL [7] = target: T1, FLAG-tagged human APRIL; test: FLAG-APRIL ELISA after 10 min at 65 °C, antibody at 3.16 µg/ml; remark: listed apart in the source
Description: as §1, §2, §3

FLAG-tagged human APRIL [8] = target: T1, FLAG-tagged human APRIL; test: FLAG-APRIL ELISA after 10 min at 70 °C, antibody at 3.16 µg/ml; remark: listed apart in the source
FLAG-tagged human APRIL [9] = target: T1, FLAG-tagged human APRIL; test: FLAG-APRIL ELISA after 10 min at 65 °C, antibody at 0.316 µg/ml
Description: as §1, §2

FLAG-tagged human APRIL [10] = target: T1, FLAG-tagged human APRIL; test: FLAG-APRIL ELISA after 10 min at 70 °C, antibody at 0.316 µg/ml
Description: as §1, §2

FLAG-tagged human APRIL [11] = target: T1, FLAG-tagged human APRIL; test: FLAG-APRIL ELISA after 10 min at 65 °C, antibody at 0.316 µg/ml; remark: listed apart in the source
Description: as §1, §2, §3

FLAG-tagged human APRIL [12] = target: T1, FLAG-tagged human APRIL; test: FLAG-APRIL ELISA after 10 min at 70 °C, antibody at 0.316 µg/ml; remark: listed apart in the source
FLAG-tagged human APRIL [13] = target: T1, FLAG-tagged human APRIL; test: ELISA: FLAG-tagged human APRIL captured on anti-FLAG plate, purified antibody titrated
Description: as §1
A subset of humanized antibodies described above was selected for further analyses. Again, plasmids encoding the VH and VL constructs were mixed in a 1:3 ratio (32 μg) and transiently expressed by transfection into (8*10⁶) HEK293T human embryonic kidney cells (HEK293T), using Lipofectamine 2000 transfection reagent (Invitrogen) according to the manufacturer's instructions. Supernatants were harvested (10 ml) and antibodies were purified using MabSelect Sure Protein A resin according to the manufacturer's instructions (GE Healthcare). Buffer was exchanged for PBS using Zeba desalting columns (Thermo Scientific). The concentration of purified antibodies was determined based on OD280 (Nanodrop ND-1000). The binding of the purified antibodies to APRIL was established using the above described APRIL ELISA. The blocking capability of the humanized antibodies with BCMA and TACI receptors, was tested in a competition ELISA. In these ELISAs, all incubation steps were followed by a wash step with PBST (PBS with 0.01% Tween 20). Maxisorb 96-wells plates (Nunc) were coated with 0.5 μg/ml Fc-BCMA (R&D Systems) or Fc-TACI (R&D Systems) and incubated overnight at 4° C. Next, humanized antibodies and dilutions thereof were incubated, premixed with FLAG-tagged APRIL, for 1 hour, which was followed by an incubation of 1 hour with anti-FLAG HRP-conjugate (Sigma).

% residual binding after heat treatment (room temperature = 100%) (FLAG-tagged human APRIL [1]): 45.2%
% residual binding after heat treatment (room temperature = 100%) (FLAG-tagged human APRIL [2]): 42.5%
% residual binding after heat treatment (room temperature = 100%) (FLAG-tagged human APRIL [3]): 47.5%
% residual binding after heat treatment (room temperature = 100%) (FLAG-tagged human APRIL [4]): 55.1%
% residual binding after heat treatment (room temperature = 100%) (FLAG-tagged human APRIL [5]): 58.6%
% residual binding after heat treatment (room temperature = 100%) (FLAG-tagged human APRIL [6]): 50%
% residual binding after heat treatment (room temperature = 100%) (FLAG-tagged human APRIL [7]): 59%
% residual binding after heat treatment (room temperature = 100%) (FLAG-tagged human APRIL [8]): 58.6%
% residual binding after heat treatment (room temperature = 100%) (FLAG-tagged human APRIL [9]): 63.7%
% residual binding after heat treatment (room temperature = 100%) (FLAG-tagged human APRIL [10]): 63.1%
% residual binding after heat treatment (room temperature = 100%) (FLAG-tagged human APRIL [11]): 67.5%
% residual binding after heat treatment (room temperature = 100%) (FLAG-tagged human APRIL [12]): 79.1%
EC50 (FLAG-tagged human APRIL [13]): 0.0483 µM
B1: VH14.VL15 (antibody, human IgG4 S228P, kappa, V domains shown)
VH: QVQLVQSGAEVKKPGASVKVSCKASGYTFTSYVMHWVRQAPGQGLEWMGYINPYNDAPKYNEKFKGRVTMTRDTSASTAYMELSSLRSDDTAVYYCARGLGYALYYAMDYWGQGTTVTVSS
VL: DIVMTQSPSTLSASVGDRVTITCKASQNVGNNVAWYQQKPGKAPKLLISSASNRDSGVPSRFSGSGSGTEFTLTISSLQPDDFATYFCQQYNIYPFTFGQGTKLEIKR
notes: Humanized IgG4 (S241P, Kabat) with human kappa, from HEK293T

% residual binding after heat treatment (room temperature = 100%) (FLAG-tagged human APRIL [1]): 44.4%
% residual binding after heat treatment (room temperature = 100%) (FLAG-tagged human APRIL [2]): 47.4%
% residual binding after heat treatment (room temperature = 100%) (FLAG-tagged human APRIL [5]): 76.2%
% residual binding after heat treatment (room temperature = 100%) (FLAG-tagged human APRIL [6]): 80.5%
% residual binding after heat treatment (room temperature = 100%) (FLAG-tagged human APRIL [9]): 66.1%
% residual binding after heat treatment (room temperature = 100%) (FLAG-tagged human APRIL [10]): 65%
EC50 (FLAG-tagged human APRIL [13]): 0.223 µM
B2: VH13.VL15 (antibody, human IgG4 S228P, kappa, V domains shown)
VH: B1 VH with A76T, A79V, D89E, T116M
VL: B1 VL
notes: Humanized IgG4 (S241P, Kabat) with human kappa, from HEK293T; also called 13.15

% residual binding after heat treatment (room temperature = 100%) (FLAG-tagged human APRIL [1]): 49.8%
% residual binding after heat treatment (room temperature = 100%) (FLAG-tagged human APRIL [2]): 51.8%
% residual binding after heat treatment (room temperature = 100%) (FLAG-tagged human APRIL [5]): 66.4%
% residual binding after heat treatment (room temperature = 100%) (FLAG-tagged human APRIL [6]): 50.2%
% residual binding after heat treatment (room temperature = 100%) (FLAG-tagged human APRIL [9]): 74.3%
% residual binding after heat treatment (room temperature = 100%) (FLAG-tagged human APRIL [10]): 70.3%
EC50 (FLAG-tagged human APRIL [13]): 0.0198 µM
B3: VH12.VL15 (antibody, human IgG4 S228P, kappa, V domains shown)
VH: B1 VH with A76I, S85R
VL: B1 VL
notes: Humanized IgG4 (S241P, Kabat) with human kappa, from HEK293T; also called 12.15
